Test [1] concerns leaf senescence in Arabidopsis. The following applies: ref Gully et al., 2015; cited from earlier work. The source says:
Senescence, a crucial biological event in plant development, involves the coordinated breakdown of cellular components to recycle nutrients, aiding adaptation to changing environments. It optimizes nutrient storage and reuse, particularly in leaves, the primary photosynthetic organs. Initiation of leaf senescence prompts various physiological changes, including chlorophyll (Chl) reduction and macromolecule degradation, enabling nutrient recycling that supports the growth of seeds and fruits ([Yang et al., 2014]; [Kim et al., 2018]; [Woo et al., 2019]; [Guo et al., 2021]). Efficient senescence ...

Test [2] has as its system ANJEA-FERONIA (ANJ–FER) receptor complex. Also on record: method as in Liu et al., 2021. The following applies: ref Liu et al., 2021; cited from earlier work.
Test [3] concerns FERONIA (FER) / EFR/FLS2-BAK1 complex. On the set-up: method as in Stegmann et al., 2017. To be noted: ref Stegmann et al., 2017; cited from earlier work.
The target in test [4] is T1, MIK2 ectodomain (MIK2^LRR, residues 45-707) fused with a 6x His-MBP tag (Arabidopsis thaliana, UniProt Q8VZG8 45-707).
T1 chain: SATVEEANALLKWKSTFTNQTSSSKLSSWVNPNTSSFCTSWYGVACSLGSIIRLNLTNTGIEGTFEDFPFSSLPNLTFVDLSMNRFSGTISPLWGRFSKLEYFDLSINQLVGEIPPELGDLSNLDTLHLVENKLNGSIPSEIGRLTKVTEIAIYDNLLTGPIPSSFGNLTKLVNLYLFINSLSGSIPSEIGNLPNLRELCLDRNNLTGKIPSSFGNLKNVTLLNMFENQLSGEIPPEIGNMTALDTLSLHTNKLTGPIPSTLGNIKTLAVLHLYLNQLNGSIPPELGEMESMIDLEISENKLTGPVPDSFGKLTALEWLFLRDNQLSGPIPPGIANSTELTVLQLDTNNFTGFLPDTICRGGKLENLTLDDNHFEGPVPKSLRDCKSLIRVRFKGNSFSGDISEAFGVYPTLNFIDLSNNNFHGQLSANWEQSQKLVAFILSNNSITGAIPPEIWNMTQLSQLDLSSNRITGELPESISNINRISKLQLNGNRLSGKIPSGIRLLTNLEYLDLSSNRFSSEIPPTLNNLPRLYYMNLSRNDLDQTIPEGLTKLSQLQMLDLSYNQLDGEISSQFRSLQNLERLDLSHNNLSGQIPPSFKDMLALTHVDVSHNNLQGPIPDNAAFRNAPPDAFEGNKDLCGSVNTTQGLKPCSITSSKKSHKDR
Description: MST; in presence of competitor SCOOP12.

In test [5] the target is T2, MIK2 ectodomain (MIK2^LRR, residues 45-707) fused with a 6x His-MBP tag (Arabidopsis thaliana, UniProt Q8VZG8 45-707).
T2 construct: ectodomain residues 45-707, without the putative N-terminal signal peptide; Cloned into pET41 with a 6x His-MBP tag; no cleavage of the tag is told; also called His-MBP-tagged MIK2^LRR; ectodomain of MIK2; source: E. coli BL21, purified (Mag-Beads His-Tag Protein Purification Kit)
T2 sequence (looked up): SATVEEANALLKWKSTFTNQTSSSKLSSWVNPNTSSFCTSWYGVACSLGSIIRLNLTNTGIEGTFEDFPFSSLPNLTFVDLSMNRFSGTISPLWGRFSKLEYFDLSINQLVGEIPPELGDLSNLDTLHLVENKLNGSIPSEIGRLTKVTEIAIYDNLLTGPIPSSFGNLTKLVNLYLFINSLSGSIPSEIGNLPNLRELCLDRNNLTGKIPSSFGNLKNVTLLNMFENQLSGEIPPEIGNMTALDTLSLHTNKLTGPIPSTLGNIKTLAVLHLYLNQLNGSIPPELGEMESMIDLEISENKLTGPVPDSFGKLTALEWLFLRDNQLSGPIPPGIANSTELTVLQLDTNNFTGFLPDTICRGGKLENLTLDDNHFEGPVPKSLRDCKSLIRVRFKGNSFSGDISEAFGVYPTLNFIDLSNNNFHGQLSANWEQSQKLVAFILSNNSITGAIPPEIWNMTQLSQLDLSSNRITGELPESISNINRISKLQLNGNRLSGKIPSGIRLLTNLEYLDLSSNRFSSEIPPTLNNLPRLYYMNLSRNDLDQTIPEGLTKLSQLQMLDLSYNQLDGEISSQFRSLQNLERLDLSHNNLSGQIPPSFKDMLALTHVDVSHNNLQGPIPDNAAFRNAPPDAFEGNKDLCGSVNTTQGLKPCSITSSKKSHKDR
Briefly: MST; Monolith NT.115; 0.05 μM 5-FAM-labelled peptide, MIK2^LRR diluted from 20 μM in ddH2O, 10 min at room temperature; 20% LED power, 40% MST power. To be noted: both partners purified.

Test [6] deals with T2, MIK2 ectodomain (MIK2^LRR, residues …). Briefly: MST; Figure 5F, titrations in the absence of the competing peptide; conditions of these titrations not told apart from the others. The following applies: both partners purified.
The target in test [7] is T3, MIK2 ectodomain (MIK2^LRR, residues 45-707) fused with a 6x His-MBP tag (Arabidopsis thaliana), Q8VZG8.
T3 chain: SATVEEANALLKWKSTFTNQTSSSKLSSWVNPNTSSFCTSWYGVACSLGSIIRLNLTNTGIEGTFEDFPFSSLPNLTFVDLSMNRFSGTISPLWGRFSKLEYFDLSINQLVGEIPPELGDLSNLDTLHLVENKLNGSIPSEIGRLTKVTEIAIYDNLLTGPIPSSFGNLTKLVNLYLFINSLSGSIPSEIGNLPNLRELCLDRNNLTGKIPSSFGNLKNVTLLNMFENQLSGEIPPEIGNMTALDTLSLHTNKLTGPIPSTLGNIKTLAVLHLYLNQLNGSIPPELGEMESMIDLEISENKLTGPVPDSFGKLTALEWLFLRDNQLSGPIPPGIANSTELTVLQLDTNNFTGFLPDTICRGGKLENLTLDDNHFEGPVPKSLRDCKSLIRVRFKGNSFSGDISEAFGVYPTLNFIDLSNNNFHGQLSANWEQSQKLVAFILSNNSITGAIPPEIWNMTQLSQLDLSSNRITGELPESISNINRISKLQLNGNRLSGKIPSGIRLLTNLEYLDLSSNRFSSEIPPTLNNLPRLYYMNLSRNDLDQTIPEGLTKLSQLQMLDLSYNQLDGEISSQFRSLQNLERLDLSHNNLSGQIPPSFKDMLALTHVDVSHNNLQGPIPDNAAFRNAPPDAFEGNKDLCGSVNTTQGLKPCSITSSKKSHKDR
Briefly: MST; Figure 5F, competition: 0.5 μM FAM-SCOOP10 and 15 μM MIK2^LRR mixed 10 min at room temperature in the dark, then a range of concentrations of SCOOP12, 10 min; 20% LED power, 20% MST power; the reverse set-up (SCOOP10 on MIK2-SCOOP12) is not described.

Test [8] addresses T1, MIK2 ectodomain (MIK2^LRR, residues …). Briefly: MST; in presence of competitor SCOOP10.

Ends that are not written are not given here. * marks the point of attachment. 5FAM = O=C1OC2(c3ccc(O)cc3Oc3cc(O)ccc32)c2ccc(C(=O)*)cc21

For the molecule “plant elicitor peptide PEP1 (ATKVKAKQRGKEKVSSGRPGQHN; Elicitor peptide 1; UniProt Q9LV87 70-92, looked up) [plant elicitor peptide, one of the first plant phytocytokines]”, the leaf senescence modulation result in test [1] is reported as “function as a leaf senescence modulator in Arabidopsis”.
On to “RALF23: RAPID ALKALINIZATION FACTOR (RALF) peptide (ATRRYISYGALRRNTIPCSRRGASYYNCRRGAQANPYSRGCSAITRCRRS; Protein RALF-like 23; UniProt Q9LUS7 89-138, looked up)”, for which, in test [2], the “competition with POLLEN COAT PROTEIN B-class peptides” value is listed as “compete with the POLLEN COAT PROTEIN B-class peptides”. In test [3], the “effect on FER-mediated receptor complex assembly” value is “suppresses the formation of the EFR/FLS2-BAK1 complex”.
Regarding 5FAM-PNGDIFTGPSGSGHGGGR [SCOOP10 peptide labeled with FAM at the N-terminus (5'-FAM-SCOOP10)], the dissociation constant Kd in test [4] came to 279000 nM; in test [5] it was 13.5 ± 1.47 nM; in test [6] it was 753 nM.
As for PVRSSQSSQAGGR (modifications not checked) [SCOOP12 peptide (unlabeled, used as competitor), B3H7I1 44-78], in test [7], the KD printed for the inhibition of the SCOOP10-MIK2 interaction by SCOOP12 worked out at 279000 nM.
Regarding 5FAM-PVRSSQSSQAGGR [SCOOP12 peptide labeled with 5-FAM at the N terminus (FAM-SCOOP12)], the values for the Kd in test [8] and in test [5] were 1160 nM and 22 ± 3.02 nM, respectively.

The record behind these values is PMC11630628 (Molecular Plant, 2024).
